The values below come from US20030091557A1 (Human Genome Sciences, published 2003).

Bridges are numbered along the chain shown (N, C = ends).

The assay has as its target recombinant human ACE-2 (human, UniProt Q9BYF1 18-740, limits assumed). As to the kind of experiment: cell-based or functional assay.

Chain of recombinant human ACE-2 (Q9BYF1 18-740 limits assumed): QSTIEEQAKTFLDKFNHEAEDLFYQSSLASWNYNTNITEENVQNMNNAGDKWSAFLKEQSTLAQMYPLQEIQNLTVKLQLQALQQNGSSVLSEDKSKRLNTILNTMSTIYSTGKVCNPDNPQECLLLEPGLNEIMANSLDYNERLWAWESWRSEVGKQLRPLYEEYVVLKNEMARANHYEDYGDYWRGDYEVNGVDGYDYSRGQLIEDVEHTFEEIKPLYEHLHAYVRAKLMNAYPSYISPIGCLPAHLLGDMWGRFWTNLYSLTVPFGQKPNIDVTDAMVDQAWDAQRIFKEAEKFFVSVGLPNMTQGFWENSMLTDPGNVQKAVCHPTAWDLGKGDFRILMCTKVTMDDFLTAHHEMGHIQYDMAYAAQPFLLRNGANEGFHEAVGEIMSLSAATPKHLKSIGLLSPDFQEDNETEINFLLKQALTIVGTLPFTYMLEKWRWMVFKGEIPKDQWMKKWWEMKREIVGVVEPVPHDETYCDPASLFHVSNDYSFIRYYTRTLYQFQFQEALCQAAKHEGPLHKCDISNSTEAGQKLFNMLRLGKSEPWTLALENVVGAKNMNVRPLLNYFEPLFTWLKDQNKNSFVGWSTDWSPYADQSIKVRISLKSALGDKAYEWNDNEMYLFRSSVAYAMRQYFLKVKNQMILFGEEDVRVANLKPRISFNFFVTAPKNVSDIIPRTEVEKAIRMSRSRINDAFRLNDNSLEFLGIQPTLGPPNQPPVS

With Ac-GDRYLCLPQRDKPWKFCNWFDPEGGG-NH2 (disulfide 6-17 (inferred); also: oxidized) [DX-599], the “IC50 µM (ACE-2 cleavage of M-2195, fluorometric)” value (shortened to “IC50 µM”) stood at 0.14 µM.

Regarding Ac-GDRLHCKPQRQSPWMKCQHLDPEGGG-NH2 (disulfide 6-17 (inferred)) [DX-512], the “IC50 µM” value amounted to 0.06 µM.

In the case of Ac-GDLHACRPVRGDPWWACTLGDPEGGG-NH2 (disulfide 6-17 (inferred); also: oxidized) [DX-513], the “IC50 µM” value was found to be 0.09 µM.

As to Ac-AGWEVCHWAPMMCKHGGTEGGG-NH2 (disulfide 6-13 (inferred); also: oxidized) [DX-529], the “IC50 µM” value was 0.4 µM.

Regarding Ac-GDGFTCSPIRMFPWFRCDLGDPEGGG-NH2 (disulfide 6-17 (inferred)) [DX-601], the “IC50 µM” value amounted to 0.068 µM.

As to Ac-GDFSPCKALRHSPWWVCPSGDPEGGG-NH2 (disulfide 6-17 (inferred)) [DX-602], the “IC50 µM” value was determined as 0.12 µM.

On to Ac-GSRIGCRDSRCNWWAPGEGGG-NH2 (disulfide 6-11 (inferred); also: oxidized) [DX-524], for which the “IC50 µM” value came to 0.6 µM.

With Ac-GSRGFCRDSSCSFPAPGEGGG-NH2 (disulfide 6-11 (inferred); also: oxidized) [DX-525], the “IC50 µM” value came to 1 µM.

Take Ac-AGSDWCGTWNNPCFHQGTEGGG-NH2 (disulfide 6-13 (inferred); also: oxidized) [DX-531]: the “IC50 µM” value was 0.5 µM.

For the molecule Ac-AGQKECKFGYPHCLPWGTEGGG-NH2 (disulfide 6-13 (inferred); also: oxidized) [DX-530], the “IC50 µM” value was found to be 30 µM.
